The nature of this data set: soluble on expression in E. coli; label from the status in PepcDB or PDB records.
As for “MSLKQAAENTLNLNPVIGIRGKDLLTSARMVLLQAVRQPLHSARHVAHFSLELKNVLLGQSELRPGDDDRRFSDPAWSQNPLYKRYMQTYLAWRKELHSWISHSDLSPQDISRGQFVINLLTEAMSPTNSLSNPAAVKRFFETGGKSLLDGLGHLAKDLVNNGGMPSQVDMDAFEVGKNLATTEGAVVFRNDVLELIQYRPITESVHERPLLVVPPQINKFYVFDLSPDKSLARFCLRNGVQTFIVSWRNPTKSQREWGLTTYIEALKEAIEVVLSITGSKDLNLLGACSGGITTATLVGHYVASGEKKVNAFTQLVSVLDFELNTQVALFADEKTLEAAKRRSYQSGVLEGKDMAKVFAWMRPNDLIWNYWVNNYLLGNQPPAFDILYWNNDTTRLPAALHGEFVELFKSNPLNRPGALEVSGTPIDLKQVTCDFYCVAGLNDHITPWESCYKSARLLGGKCEFILSNSGHIQSILNPPGNPKARFMTNPELPAEPKAWLEQAGKHADSWWLHWQQWLAERSGKTRKAPASLGNKTYPAGEAAPGTYVHEREGHHHHHH”, the “soluble on expression in E. coli” value is “not soluble”. The same measure for “MTRYALLVRGINVGGKNKVVMAELRQELTNLGLEKVESYINSGNIFFTSIDSKAQLVEKLETFFAVHYPFIQSFSLLSLEDFEAELENLPAWWSRDLARKDFLFYTEGLDVDQVIATVESLELKDEVLYFGKLGIF”: “not soluble”. The same measure for “MAHHHHHHMSSVSAAPQLSPKVIPGCSNTHSNSGLPTILSDLGTFAYQSACYGPQQLLACSSAVTNAGEVIFVYDMNSMLLTQSLSGHKAAVTALLWRPPPASYLQTGLFLWSGDARGALMYWDVVEGVALTSIQTPCHAAVQSLTLLTDEHLLVVTQEGAGYVFNSHLVDNTPLPPGRLLLETKQSTLLGNISRPSLVACSRLNDQHCCAVVLGDRLRILTAIQLDSGATAPVAKDLIYDSCDGAPTVVDVFFSDAQEEVLYFATRNTVGCYDWKLRLMLNESLLWLPDEVEFRRIFRSCSSGAAARTAASRSQESTASSSGDAAAAQVPLMYSFGSDQRLVAWHVTRHDRFTAVLTDVRGARINAKLCVNVVQSELDSSMFAVLFEDGSIVHWQYSPLARRWKLLDCWLAPVVRPVTFCPVGAHHCCVALESGHLALMDITHSMAVRRLTWSTLAERRLCCCAGTSGATLSGSCRTASNSTATTTKSR”: “not soluble”; for “MDKKANSNQNQEQKRETSDAVDRAAKAGLFNRIYVTVGQKVGIVELTKLEPRFERNIEKLTTYHNIIYNMVNAIELQVQVDPKAIVKNQVLCDPDESPWELLGGWINYMGTYHFNGPQSKILDAYSIACGKIGQKERQLQKRTRSHCIKKMRMYTADESVELNNHVAHLKDLLIAIDDSRHQLKSSRTTKEVKAKGEIYRKNIQAFNCTANEVQARLDEVPMIVPHHENELLKFSREVSIFNNSVENLLKEVVFRLGYGKRNDKPSTRAVLK”: “not soluble”. The same measure for “MGSDKIHHHHHHLVEKRRVMSNLETNQGRLAAIETFAERCPDCGSLLYRPKGLSKVTGKKMAGVCMNCGYKQPPTEPKNVTPDMEKEARKNRTVGYYLAYSVFSTDAIIAKDFNNFHTDGSLGQQQLKLFAVGLSNKICRNEVVHALIIGDTGVGKSHIANGILIDTQAKTGYRKTCLFIDWNALMQRLKSGMSANAQDVRMKNEKIMHEIGKADVVVIDDLGSERGSDFDRQTADDVFRMREDKATIVTTNLHGQDLNKRYGERTMSRMAKHGQGNSFGVKGILDQRKEALP”: “not soluble”. Turning to “MPSSIICDVSHEGEASGGPSPSSRISNGFSHTVCDLHHNFPIVKNRRKYHNSISTQSSSSTTTSLERISTSTCTSTSSSASDAIISRAEKDVQTFLVSDESTTGDHEEEEEDDEDGDDESDHNDYDYEDDGERSEHDHEQTDNDDDEDEIEPFVSSWCFAMGTQRSVMSSVGEKAPKSNVKSMEDWELDVVERAHRESHLAELYADLSWRFYTHPPTSFCLARVFLRHGLTGNEGVSSWKLPRKANRRNSSCSSISSVSESSSPSALDESTLTKILPTDNFRGGRGFASPSPPTSLLSEPLSRMDVLSEKIWDYHNKVSQTDEMLQRKLHLRDMLYTAISPVFPLSGLYVVGSSLNGFGNNSSDMDLCLMITNKDLDQKNDAVVVLNLILSTLQYEKFVESQKLILAKVPILRINFAAPFDDITVDLNANNSVAIRNTHLLCYYSSYDWRVRPLVSVVKEWAKRKGINDANKSSFTSYSLVLMVIHFLQCGPTKVLPNLQQSYPNRFSNKVDVRTLNVTMALEEVADDIDQSLSEKTTLGELLIGFLDYYANEFNYDRDAISIRQGRRVERAALAVRPKIHSNSEGDKETPPPSSSASTSSIHNGGTPGIPMHHSISNPHFWRSQWRCVCIEEPFTNSNTAHSIYDEMVFEAIKKAFREAHGELQHNHDLDKLMECEPIKASTTNTGAAVFAATYEGERPLAQQPNTIACASLRVLNSIPVSSGPGHYHYQQQSNQNLSRPQRPGSNQGYQMNNNRGFNGNNQQQHQNRRSFNNQSSSNPGNGSTGPRSSRSNENVRDSSRQQNSQKGSSGVSVSKENVASTTGVPVDKKQQNSNRKDDGNRTKRSPMVQSPEPAKTKSEKTPMASSNVSQ”, the “soluble on expression in E. coli” value is recorded as “not soluble”.

Consider “EDAWEANDPLGSLSIRYLEAAQDSQWHRELLLAGTDINHHVFRDLVTPRNPRSRFSFAMYLKEQGRMFDFGLLGRPASRHEWSDYLAWVSRQVDSQTCFNTPVTGIDPVLRNGRLHEVRVCTPQTCFTTRNVVLSSGSAPRIPHAFEALLGPTLFHTSQFLTRLQAFGEYLPKRWLVLGSGQSASESVLELVSRDHAIEV”, for which the “soluble on expression in E. coli” value is recorded as “not soluble”. As for “GSHMSPSDLHLPVPGHPIAAIATPVGVGALAIVRISGAGVLDLADRVFRKVHGSGKLAEAAGYTAHFGRLYDGEEMVDEVIALVFRAPRSFTAEQMVEFTCHGGPVVVGRVLRLMLDNGCRLAEPGEFTRRAFLNGRIDLLQAEAIGEMIHARTESAYRTAVSQMKGDLSVRLGGLREQLIRSCALIELELDFSEEDVEFQSRDELTMQIETLRSEVNRLIDSYQHGRIVSEGVSTVIAGKPNAGKSTLLNTLLGQERAIVSHMPGTTRDYIEECFIHDKTMFRLTDTAGLREAGEEIEHEGIRRSRMKMAEADLILYLLDLGTERLDDELTEIRELKAAHPAAKFLTVANKLDRAANADALIRAIADGTGTEVIGISALNGDGIDTLKQHMGDLVKNLDKLHEASVLVTSLRHYEALRNASDALQNALELIAHESETELIAFELRAALDYVGQITGKVVNEEVLNTIFDKFCIGK”, the “soluble on expression in E. coli” value was “soluble”. The same measure for “MTLNITSKQMDITPAIREHLEERLAKLGKWQTQLISPHFVLNKVPNGFSVEASIGTPLGNLLASATSDDMYKAINEVEEKLERQLNKLQHKSESRRADERLKDSFEN”: “soluble”; for “MPLVSMKEMLIDAKENGYAVGQYNINNLEFTQAILEASQEENAPVILGVSEGAARYMSGFYTIVKMVEGLMHDLNITIPVAIHLDHGSSFEKCKEAIDAGFTSVMIDASHSPFEENVATTKKVVEYAHEKGVSVEAELGTVGGQEDDVVADGIIYADPKECQELVEKTGIDALAPALGSVHGPYKGEPKLGFKEMEEIGLSTGLPLVLHGGTGIPTKDIQKAIPFGTAKINVNTENQIASAKAVRDVLNNDKEVYDPRKYLGPAREAIKETVKGKIKEFGTSNRAK”: “not soluble”; for “AMACWAQSQGYNCCNNPSSTKVEYTDASGQWGVQNGQWCGIDYSYGQNQGNESCTGNGSYPCCNTCQATYTDGDGDWAFENGNWCGIKNSCKQQPQNNNQ”: “soluble”. Take “MGGSVAAQDEFYRSGWALNMKELKLLQTIGKGEFGDVMLGDYRGNKVAVKCIKNDATAQAFLAEASVMTQLRHSNLVQLLGVIVEEKGGLYIVTEYMAKGSLVDYLRSRGRSVLGGDCLLKFSLDVCEAMEYLEGNNFVHRDLAARNVLVSEDNVAKVSDFGLTKEASSTQDTGKLPVKWTAPEALREKKFSTKSDVWSFGILLWEIYSFGRVPYPRIPLKDVVPRVEKGYKMDAPDGCPPAVYEVMKNCWHLDAAMRPSFLQLREQLEHIKTHELHL”: the “soluble on expression in E. coli” value was “soluble”. With “MDRDELVRYLDAYLRIQDFPQDPSLNGLQVEGKRTVRKVGAAVDAGEAIFRKALEEEVDFLIVHHGLFWGKPFPIVGHHKRRLETLFQGGINLYAAHLPLDAHEEVGNNFVLARELGLVDLTPWDVGVKGRFPQPTPLLQVADRLGQLTGMQPLVHQGGLDHVETVILVSGSGTGLLPKVDADLFVTGEPKHSVFHETFERGLNVIYAGHYDTETFGVKALAAHLEARFGLPWVFLDHPTGL”, the “soluble on expression in E. coli” value was “soluble”. The same measure for “MEENTEQRVDLTLFSEKIQELKDQIASVIVGQEQTVDLVLAAILANGHVLIEGVPGVAKTLLARLTARLIDADFSRIQFTPDLMPSDVLGTTVFNMKTNDFDFHQGPIFADIVLVDEINRAPAKTQAALFEVMEERQISIDGITHKMGELYTILATQNPVEQEGTYKLPEAQLDRFLMKITMDYPSLEEEVDILERHHTNASLIKLDDIKPAITKEELLSLRAFMNQVFVDRTLLQYIALIVQQTRTSKAVYLGASPRASVAMLQASKAYALLQGRDFVTPEDIKFVAPYVLQHRLILTAEAEMEGYSPVKVTQRLIDKVEVPKLEHHHHHH”: “soluble”. Take “MRKLSKRLLGTVHVATSSTPPGSPFSLVNRQFLLLPTMDKLMGEICREKQIVDRCKMSIDRKEPYDLISMKQQIEISLSKITAMKMRLFHMQNNSETHNSPCSINQQILNTQLLCHGARKVRESLRKDESPNEKVLRETEQTILVLNEKLDLLSNCCSQKESSLTPISVRRSRGGPSKTNNFPVAVSGFLKIRVTGLADLPNNTKHRSGRYASEHFAQLIKKKKSMFGRHGFRRYPNRSSAVNDYIIVIHVGGKEVATMVWNEKKTMVGGDEETIQLFKSRQLDFEIYHTDSRSLCAIGSMQLESLLDEHDAKFPFATFAHRVVNLIPEGTLHFQTTYSDPEQSMEKKLGDTCTDGVSKLAVSMRKSGSVLARGSKTFYSPRTAISLNQFVPLTPSMKSRTRRIDSLDSYRLISEIGVGAFGTVKLGTKDP”: the “soluble on expression in E. coli” value is listed as “not soluble”.

In the case of “MLSDYEEFLRLEKARKIILEILNEKGRDALYDLSGLSGGFLIDEKDKALLNTYIGSSYFAEKVNEYGLKHLGGDENDKCVGFNRTSSAILATILALKPKKVIHYLPELPGHPSIERSCKIVNAKYFESDKVGEILNKIDKDTLVIITGSTMDLKVIELENFKKVINTAKNKEAIVFVDDASGARVRLLFNQPPALKLGADLVVTSTDKLMEGPRGGLLAGKKELVDKIYIEGTKFGLEAQPPLLAGIYRALKNFNLERIRKAFERAKNFDLSKIEKLNKELKAIDDNINIVYERTPTGFVIKRVYKDDTINIKKLIEIGFNLLKNYGIITITVAGMPGASKSLRIDLTSRDAERIDDNYIIKAIVESIKMAFKS”, the “soluble on expression in E. coli” value is “soluble”. For “MSLDSRKPGHRPVTMRDVAKAAGVSRMTVSRALKKDSPISSETRERILKVVKDMNYVPDQVAGSLTTKRSGFVGLLLPSLNNLHFAQTAQSLTDVLEQGGLQLLLGYTAYSPEREEQLVETMLRRRPEAMVLSYDGHTEQTIRLLQRASIPIVEIWEKPAHPIGHTVGFSNERAAYDMTNALLARGFRKIVFLGEKDDDWTRGAARRAGFKRAMREAGLNPDQEIRLGAPPLSIEDGVAAAELILQEYPDTDCIFCVSDMPAFGLLSRLKSIGVAVPEQVSVVGFGNFEVSRFASPEISTVRVDPIAIGRETGSLILRLLDPKQRSPQTAQHITLPPVLEFRPSLKNEGHHHHHH”, the “soluble on expression in E. coli” value is “soluble”. Next, “MNTMLFSPYTIRGLTLKNRIVMSPMCMYSCDTKDGAVRTWHKIHYPARAVGQVGLIIVEATGVTPQGRISERDLGIWSDDHIAGLRELVGLVKEHGAAIGIQLAHAGRKSQVPGEIIAPSAVPFDDSSPTPKEMTKADIEETVQAFQNGARRAKEAGFDVIEIHAAHGYLINEFLSPLSNRRQDEYGGSPENRYRFLGEVIDAVREVWDGPLFVRISASDYHPDGLTAKDYVPYAKRMKEQGVDLVDVSSGAIVPARMNVYPGYQVPFAELIRREADIPTGAVGLITSGWQAEEILQNGRADLVFLGRELLRNPYWPYAAARELGAKISAPVQYERGWRF”: “soluble”.

The values above are taken from the DeepSol protein solubility set.
